Data: a protein production outcome set (Wang et al. 2014)

Experiment: label from the status in PepcDB records

| Sequence | protein production |
| --- | --- |
| MSVLAIIFLLNLKPTIYSIVGIFLIIILDVTVAVALYFLLRPVSKNISMLMSLFRIVYAAIFTTALYKIHDLTAFYSILDLGYIFFGIHLFLLGFLVYKSGYMPKWLGALIFIASTGYIIDPLLRFSGYAVEIGMYTFFGEVLFAFWLVIKGRKLSEVVSTP | failed |
| MKWPWWPVCVPLSKRLTLPLPSTANPVVQPSRLALACANRLFEAADNRERFLQALMTPPAYPATVLWCGEPAAALPFAALPPLPWQPPWVSRFVAGSPTGQHPLHAAGAYYCLDSSSVFAAVPLLTLPQEPSLVIDVCAAPGGKSLFAWRSLHPRYLICNETIGKRVGKLIGNLKRCRVHPVGVTSWDSEVLAAEFQGTADVVIVDAPCSGQSLLAKGQKAEGCFHPLTIRHNQRRQKRILAAATTLVRPGGWLLYSTCTFSQDENEDVAAWLMAKFPHLLPQPVPALAAYQSHLAAFPCYRLWPHQGEGAGAFTILWQHQGLEHHHHHH | not failed |
| MKDLSSIVAKFNTQGTITEIKPLGAGLINDTYKVNTQEADAPDYVLQRINHAIFQNVEMLQSNIAAVTGHIRKKLTEAGEADIDRKVLSFLATEEGKTYWFDGESYWRVMVFIPRAKTYETVNPEYSNYAGEAFGNFQAMLADIPETLGETIPDFHNMEFRLKQLRDAVAANAAGRVAEVQYYLDEIEKRADEMCKAERLFREGKLPKRVCHCDTKVNNMMFDEDGKVLCVIDLDTVMPSFIFSDYGDFLRTGANTGDEDDKDLNRVNFNMEIFKAFTKGYLKGAKSFLTPIEIENLPYAAALFPYMQCVRFLADYINGDTYYKIKYPEHNLVRTKAQFKLLQSVEEHTPEMVAFINECLVNGLEHHHHHH | failed |
| GSSGSSGHADEVWPGLYLGDQDMANNRRELRRLGITHVLNASHSRWRGTPEAYEGLGIRYLGVEAHDSPAFDMSIHFQTAADFIHRALSQPGGKILVHCAVGVSRSATLVLAYLMLYHHLTLVEAIKKVKDHRGIIPNRGFLRQLLALDRRLRQGLEA | not failed |
| MNEKFNINIAWFLIILGGIIECFWVSGLKYSTEIWHYILTAIGVCISFTCFLKACERLEVSITYSVFVGIGTIGVVLNEMFIFNEAVSIIKLVLIAILLLSIIALKWVSKEA | failed |
| MNQEKIADLKNWMHQEKIDFTYISDPGHIAYFSGYESEPHERVLALFIAADDQSFLFTPALEVEDAEKSSWTYPVYGYLDSENPWEKIAALLNKRTQGTPRFALEKQALSLARFDQLKTYFPASDFSHDVTPLIEKLQLIKTEPEIQRLLEAGSWADVAFEIGFKAIQAGVAEQEIVAEIEYQLKRQGIRSMSFDTLVLTGKNGASPHGVPGETKIEPHDLVLFDLGVVHNGYCSDATRTVSYLEPSDFQKEIYGIVLEAQLAATEAVKPGVTAGELDDIARGVITKAGYGEYFNHRLGHGIGTTVHEYPSLVHGNDLVIEEGMCFSIEPGIYIPGKVGVRIEDCLHVTKTGSEPFTKTTKELQIIQ | failed |
| MTISADPDRDWKNRISAQALRQIQELDLALDPNSFELWYTFFSGRHKALTEAVNALLAATGRPSAGDISGLYEQFLYPTKAVTRIHAIGALVHSQSNALIDVIEEASDATHGYETRLSSAAPRLALGRMEDGLQTIVDELLTWTMDIQTANAVLVDRLRSAADQVRKLQDQLDQVRLESMTDPLTEVGNRKYFENQLSLHVASDDSGPLALLIVDLDNFKQFNDRHGHVVGDDVLRLAASTIKHNCRRDDVVCRYGGDEFAIILPRTPLREALLLGEAIRAAIAARELHRRSTHESLGRLLISIGAAEFRPGETADDFVERADHWMYAAKQARRDRTRPGPDAAARDPGERRPDILWHETYACGEPTIDAQHRELFDLANVILGPEIEMLEPARLSELVELLLTRVAEHFQYEQAVLEASGYDECGLHRMEHDHLLIRARQVSEAVVSGHQSLGELRAFLVNSVILGHMLKDDRRFFPLFDRQASSATQSGAAPVHRERRRLSL | failed |
| MARDNENILEEWCLIESNPCIFYDMLKRMGATEISVEDVYSLSYFDDYINNKEIINMNHILGVDTYLGENNKTLDKENNVVDVIELYKNNICMEDKYNKLLKHHSYIYGIIFLFNIGKHYKNNKYIEHNVPDNLFFAKQVIPNACATQAILSIVLNKDIELNDEIKNIKTFSLNFDSSMKGLTLSNCTFLRNIHNSYKPPIYLDKEDVHHDKKKSEDSFHFVSYISFQDKVYLLDGLQSGPVLINADEQNKPNPNNNNNNKDNDNDNNNNNNNNNNNNNNNNNNNNNNNNNNIGMNGKDWIEISREHIKKEIDEICNSQTNNDVRFNIIAVMKDKEYIIQEYINIHRIVKQRVNIKLINLGENIELSDEINEDEFPLLNDIPSIENLPNNVDTLYNIVNKSTLEINYLQSLLHEQKEIKKLWNIELTFKFFNFYPFIMSSLNLMAKHKLLKDAYQKEKLKNATKS | failed |
| MVDDNTDQSLSFGRLLFGAGLALQASEDFREMDETVEYAESAGVPVPDVLAPLASGMMLVGGIGVALWRFPRIATGAVVTFLAVVTPTMHDFWNAEPGDRSGERLAFFGNLAMLGAALAYLRKAYR | failed |
| MFYILNNVLKNIKTLDNVKSKFFLKDSFLKNKLKANNLDDNLSSHIFFNEIFVSLRDDEKKEEHKKVLLFNKVRNDKKHRKRAFQKRGYWKKMHYFIRKNNMMSYAFKVQNIDYEKIKKLKRGEVYSN | failed |
| MQNLDRDVVIVGAGPSGLTAARELKKAGLSVAVLEARDRVGGRTWTDTIDGAMLEIGGQWVSPDQTVLMELLDELGLKMYSRYRDGESVYIGADGKRTQYTGDTFPVNETTKAEMDKLVAILDELAAEIGPTEPWAHPKARELDTISFHHWLRQNSNDEEACNNIGLFIAGGMLTKPAHAFSALQAVLMAASAGSFSHLTDEDFILDKRVIGGMQQVSLLQAAELGDDVVLNSPVRTIKWDENGVSVVSERATVNARFVIMAVPPNLYSRVSFDPPLPRRQHQMHQHQSLGLVIKVHAVYDTPFWREEGLSGTGFSAGALVQEVYDNTNHGDSRGTLVGFVSDEKADAVFELSAEDRKKAILESIAGFLGDKALTPEVYYESDWGSEEWTRGAYASSYDLGGLHRYGKDQHANVGPIYWSSSDLAAEGYQHVDGAVRMGQATAARIVEANKLASVPVA | not failed |
| MHTISLKRILIYIVLLVTSFALLVGFTVNIVSQVAQYQESLHDQALSYSRIVAGNAASSLVFNDNANEKQRLSSLENTSFIQHVHVYKMDETSNELTFFSSYNKKGLPPIPARFAKLDKLTTPQTNDNYIEVSQPVVLDDEVIGYVYLRGSLEQARLFMWRSIGIASVVFVLTLLLCWLITLRLRKTIVTPLDSVVDVISQVARDKNYSLRLAPSKLVEFDMMAHAFNTMLDRVQQHISRQRRAEEEASQLNTELERQVTQRTQALKESNSELLKTLEQLHQYQGQLVESEKMASLGDMVAGIAHEVNTPIGLSVTASTLLQDKLTIMQEKFDEKRISTSEFERFLSDCDENLQIIYRNLGRAADLVTSFKQVAVDQSSEIDRDIHIPSFMNDVLISVKPRRLDPEKFPIRISCPEGLTVRAKAGPLNQVLINLIVNSMIHAFEGYSSGRVDISFTMVGDDKLEMVYTDNGKGVPSDINRKIFDPFVTTKRGSGGSGLGLHLVYNLVTQVLGGNIHFFSEEKNGVEFIVRFPVTLVSNA | failed |
| MTSTFLLEIGTEELPADFARQALDQLQDRVGRDLLDSRLDHKSVQVLGTPRRLVVRVHGLADRQPDLEEDQKGPPIAQAFKDGVPGPAAIGFSKRCGVDPSQLEVRNTPKGECVFASVRTEGQNSVDLLQELIPAWINGLQGRRFMRWGTGSQRFSRPIRWLLALKGVDLIPVEIPGADPPVRSDRFSRGHRLHGDQPLPIDTAEDYDDTLAAAGVIVDRQQRAALIRSQLDASADQLNGLPDCPESLFEELVDLVESPRLLQGSIAERFLSLPPEVIITVMQAHQRYVPLKVPEVTPDPLQLEATVVLQRDFLLVGNGLEAADALITRGNERVLAARLADAEFFLSVDRRQPSSARREALDRVTFAEGLGSLLDRCQRIERTARQLVDQLNLDAHQGEAAIRAAHFCKHDLVSQMVGEFPELQGLMGGKYLLEEGEPTEVALAVVEHYLPRGAGDQLPSSDAGAVVALAERLELLLSIFAKGERPSGSSDPYALRRAGNGLLQIVWDRGWRLDLSRFLGSAVEDWAALFPEFAIDSSALHQDLCQLLRQRIVSQLEDEGFVPDLVQAVSAESVAT | failed |
| MTPNNIVSRTEMDNGIQGFYKDKVVFLTGATGFLGKVIIEKLLRTTEVKRIYAMMRPKRGKDIQERLAIWQKDPLFEVLLKAKPDALKRIFVIAGDCLDPDLGINRSDRKLLVSEVHIVIHGAATVRFNEPLHVALAINTRGTRLMLQLAKEMLQLEAYLHISTAFSNCVIFRIEEKFYPEHLTCDANSVLAMSELLSEQMMDKLAPTLVGNFPNTYTYTKALAEDVVLREFGDLPLSIFRPSVIIATHEEPVSGWIDNLYGPIAHIYGVSHGVLRLTTYDKDGYASLVPVDYCANAALASIWQTSKDKSQRNAISQPAIYTLAPSEKNLLLNTDFIKHSLIHRNDFPLTKMIWYPFVHNISNPRIFPLAAFFYHTLPGYFYDLALRLSGRKPRLVKLYRSIHANIAVLEHFMNNSWHFETKSTDRLRVMMSPEDRRLYNFDMETLDWKEYFRKALFGMRLYLTKEPPTQESLEQGRRLFYRWLLIVDACQVIYLI | failed |
| MRINPGEITKVLEEKIKSFEEKIDLEDTGKVIQVGDGIARAYGLNKVMVSELVEFVETGVKGVAFNLEEDNVGIIILGEYKDIKEGHTVRRLKRIIEVPVGEELLGRVVNPLGEPLDGKGPINAKNFRPIEIKAPGVIYRKPVDTPLQTGIKAIDSMIPIGRGQRELIIGDRQTGKTAIAIDTIINQKGQGVYCIYVAIGQKKSAIARIIDKLRQYGAMEYTTVVVASASDPASLQYIAPYAGCAMGEYFAYSGRDALVVYDDLSKHAVAYRQLSLLMRRPPGREAYPGDIFYLHSRLLERAVRLNDKLGGGSLTALPIVETQANDISAYIPTNVISITDGQIYLEPGLFYAGQRPAINVGLSVSRVGGSAQIKAMKQVAGMLRIDLAQYRELETFAQFATELDPATRAQIIRGQRLMELLKQEQYSPMPVEEQVVVLFAGVRGYLDDLPVEEVRRFEKEFLRFMHEKHQDILDDIKTKKELTSETEEKLKKAIEEFKTTFRV | not failed |
| MTIFVLSSLLAILLAVAIYNSEPSSYAHRSPTYGIGYVFVYIIAAFLFSFVIIYLGRKKKLRIFKVIYSIVVAYVIFYVFLILLSIFLYNVYAIFTVSIVVAIVFFYMILFRNEWYVTDLAGFFLSVGISSIWGITFGVWAAVAFLIAFEIYDYIAVYKTRHMISLARYAVDSDLPMLFVLPENSGFTMRGLSFDNRGDGNVLMIGFGDIALPSIMVVSSAIYGISHILFFTVLPLAGGLIGMAVLYFWNRDRPAPGLPYINTGTIAGFLIAFLAFRVF | failed |
| TLTVNGPPIISSTQTQHALHGEKGQIKCFIRSTPPPDRIAWSWKENVLESGTSGRYTVETISTEEGVISTLTISNIVRADFQTIYNCTAWNSFGSDTEIIRLKEQGSEM | not failed |
| MSDAMPLDQTLEQLTQDEWIDIPQGWSQGRTIYGGLVAGLLMHKALSVMNDESKNLLSTSITFVGPVNEGRVRLTVEILRQGKSVTTIEARLWQDQAVQTILIASFGQPRSSEIFVLNLPEAPDYLSPEQFSRMPFVKMMPECYQQFDLRWAEGHYPMTQQAPDFGGWCRYDIQKHSPRALNVADLLILMDIWPPGVLPMFQTIAPASSLTWHLTFVRPVAYELHDWFKYQVVTQHAAFGYATEYAHLWDAQNRLIAISRQTVTVFA | failed |
| MFKVGPIGSKQYYDKSWEEKGRNMISIFGILVHDGHVKANIQVRLNDDEYVTGLSGIFWERKVTSLTFHTNQGKHGPFCNGTGYSSSYMADYKKEIDVKIRDRREFGGFFGSFDDEFDGLTSIGIYVYPTYDNKPTLNQAWDPLYAFAHNQIPTIADGIPVMHIRYKPKLKDRIFSKLDFKRAMLCLIKVFLD | failed |
